Data taken from the Human Domainome abundance scans (Beltran et al. 2025).

B1: Far upstream element-binding protein 1, residues 98 to 169; numbered along this chain, Q96AE4 (parent)
chain: RSVMTEEYKVPDGMVGFIIGRGGEQISRIQQESGCKIQIAPDSGGLPERSCMLTGTPESVQSAKRLLDQIVE

Variants of: B1
Test: abundance fitness (aPCA) (normalised: wild type 0, dead -1); higher = more abundant; growth selection in yeast, the domain comes from the species named
Conditions: Homo sapiens

Abundance fitness, by site and new letter:
K9: Q -0.033; P -0.112; H -0.093; S -0.108; F -0.033; N -0.156; W -0.084; E -0.216; C -0.1; T -0.091; A -0.114; G -0.195; M -0.043; V -0.098; L -0.06; I -0.079; D -0.181; Y -0.084; R -0.053
G13: H -0.055; V -0.218; Y 0.012; P -0.019; A -0.01; T 0.031; M -0.034; D 0; W -0.038; Q 0.033; R -0.007; E 0.041; K 0; S 0.025; I -0.034; F -0.123; L -0.079
S2: Y -0.087; Q 0.015; C -0.085; P -0.064; G -0.003; A -0.033; M 0.038; K -0.006; F -0.026; I -0.077; V -0.036; L -0.052; E -0.007; N -0.143; R -0.004; T 0.012; W -0.133; H -0.15
M14: P -0.27; N -0.105; R -0.131; A -0.007; V -0.01; L -0.013; W -0.093; H -0.12; I -0.037; Y -0.025; F -0.016; D -0.082; G -0.097; C -0.011; K -0.066; S -0.026
R1: I 0.01; L -0.131; Y 0.011; S -0.113; A -0.125; P -0.286; D 0.042; N 0.043; E -0.194; V -0.035; C -0.013; G -0.102; W -0.269; K -0.081; Q -0.513; H -0.219
E6: A -0.14; N -0.177; Q 0.054; T 0.029; W -0.048; K -0.01; R -0.02; D -0.104; M -0.01; C -0.085; G -0.092; F -0.081; Y -0.053; L -0.033; P -0.625; H -0.081; I -0.07
E7: C 0.061; F -0.153; A -0.085; V -0.106; L -0.031; W -0.054; G -0.116; T -0.031; M -0.281
V10: F -0.091; L -0.018; K -0.584; N -0.48; Q -0.581; S -0.382; E -0.628; P -0.265; Y -0.198; G -0.304; W -0.193; M 0.008; C -0.078; D -0.389; H -0.502; R -0.491
G16: C -0.083; F -0.176; R -0.007; K -0.028; Q -0.029; N -0.037; V -0.108; E 0.009; T -0.054; H -0.064; Y -0.118; D 0.018; A -0.023; P 0.033; W -0.09; L -0.102; I -0.144; M -0.098
G20: C -0.167; E 0.002; F -0.176; A -0.066; I -0.284; M -0.174; H -0.08; K -0.14; D -0.063
F17: T 0; E 0.084; Y -0.019; S 0.063; C -0.009; D 0.015; P 0.01; H -0.003; K 0.072; V -0.005; N 0.022; G 0.04; A 0.045; W -0.007; M 0.018; L -0.008; I -0.041; R 0.047; Q 0.044
Y8: D -0.688; E -0.535; R -0.216; M -0.104; I -0.035; C -0.297; Q -0.2; N -0.426; V -0.069; A -0.221; T -0.147; H 0.024; P -0.798; W -0.059; L -0.059; F -0.013; G -0.608; K -0.127
V3: N -0.001; I 0.06; T -0.005; C -0.048; P -0.092; H -0.043; Q -0.004; K 0.03; E 0.004; F -0.073; L -0.047; M 0.017; S -0.087; A -0.058; D -0.042; W -0.084; Y 0.003; G -0.086
I18: E -0.147; S -0.226; W -0.108; C -0.145; M -0.049; L -0.012; P -0.266; F -0.036; A -0.189; N -0.236; D -0.175; V -0.031; K -0.264; T -0.175; Q -0.243; G -0.206; Y -0.21; R -0.324
T5: H -0.055; Q -0.016; G -0.101; I -0.037; E 0.009; N -0.063; C -0.072; A 0; W -0.138; V -0.049; F -0.006; Y -0.096; P -0.301; S -0.01; D -0.149; L -0.11; R -0.012; M -0.012
P11: I -0.159; F -0.206; S -0.112; G -0.138; L -0.102; R -0.074; D -0.052; Y -0.127; Q -0.099; M -0.136; T -0.124; H -0.162; E -0.067; A -0.081; V -0.17; N -0.125; W -0.185; C -0.133
V15: W -0.084; N -0.213; L -0.046; C -0.124; S -0.059; R -0.206; I -0.074; P -0.146; G -0.136; D -0.158; H -0.135; T -0.126; M -0.027; F 0.011; Y -0.144; Q -0.08
M4: P -0.245; W -0.165; A -0.07; T -0.06; F -0.001; R -0.165; L -0.033; Y -0.007; G -0.133; I 0.015; H -0.074; Q -0.085; S -0.135; K -0.053; N -0.027; D -0.079; C 0.01
D12: E 0.001; W -0.164; L -0.064; H -0.038; M -0.067; K -0.068; Q -0.027; Y -0.045; I -0.038; N 0.032; S -0.045; R -0.028; A 0.019; P -0.009; F -0.066; C -0.057; V -0.041; G -0.049
I19: N -0.036; F -0.048; Y -0.068; H -0.06; D -0.094; A -0.034; P -0.211; M -0.071; L -0.006; W -0.042; R -0.038; C -0.001; E 0.018; G -0.072; T -0.018; V 0.012; S -0.046; Q -0.03; K -0.021
